Consider 8 sequences from the DeepSol protein solubility set.

A short description of this series: soluble on expression in E. coli; label from the status in PepcDB or PDB records.
“MGSDKIHHHHHHMNTKKESALSFPSAGIESFGERLKELMGDESLRAFANAIDTSEGGVRKWFTQSTMPSFDKMVRIARRYNVNLEWLCTGEGPKFPGETAAYESVICKTEEFSEEYALIDGYHTQVSTGHGAQWDNERVRRKLAFRSKWLRYRGLQPENLRVVFAKGDSMEPTIHSGDSILVDITDANLSDGSIFVLRIGDDLFAKRVQVHIDGSITIISDNKEYREQRVPVAELGLLSVVGKVVWIGKDVK”: the “soluble on expression in E. coli” value is on record as “not soluble”.
The result for “MGSDKIHHHHHHMNTLKKITNNISKVIIGKDESIELAAIALIAKGHILLEDVPGTGKTTLAKSLAKSVDAKFQRIQFTADTLPGDVIGLEYFNVKESDFKTRLGPIFANIVLVDEINRAVPRTQSSLLEVMEERTVTIAKQTHSLPEPFLVIATQNPLESAGTFPLPDAQLDRFLLTIRQGYPTREAEKEMMNRFQMNDPLETLHSIISSEEIITMQKRAREVLVGNDVQDYLLEIIEATRKHELIEIGVSPRGTLAFMRAIQARAILNERDYCTPDDIKQLAASICTHRLTLTIEGEMKTTKEQIMKEILHTIDVPVENVR” reads “not soluble”.
With “MGSDKIHHHHHHMNTNDTELLRLFETLTTEQKIDIARHLLQNKDIKSTTVIATEEDKAISFAQPYVFAFTSNFRVFSDLDISKNEFRVLTYILEYMEFGNLINLSQSSLCKALNIASGNMSNIFKKLKQKGILVEHHGHLYINSNIFAKGLSHQLDEKRKEHLSNARSLHAELEQYPENYTDYSKQERRNLALETETKEIYTDAFIFSKKKKNNAVPNAKNSIKIDKPRKVYKRTKENEAARKDLADAKNHLKAVS”, the “soluble on expression in E. coli” value is listed as “not soluble”.
Consider “MGSDKIHHHHHHMNVAILLAAGKGERMSENVPKQFLEIEGRMLFEYPLSTFLKSEAIDGVVIVTRREWFEVVEKRVFHEKVLGIVEGGDTRSQSVRSALEFLEKFSPSYVLVHDSARPFLRKKHVSEVLRRARETGAATLALKNSDALVRVENDRIEYIPRKGVYRILTPQAFSYEILKKAHENGGEWADDTEPVQKLGVKIALVEGDPLCFKVTFKEDLELARIIAREWERIP”, for which the “soluble on expression in E. coli” value is reported as “soluble”.
Turning to “MGSDKIHHHHHHMPDGNQSLTVTVLSAIAEIGAEEWDGCAGSHNPFIRHAFLLAMEHSGSATAQTGWTPRHLAVRDAEGRLLAAAPLYLKSHSFGEYVFDWSWAQAYERAGGRYYPKLQCAVPFTPVTGPRLLVRPGEDGPRLRRVLAASMVDLARRLGASSVHVTFPSGQEYEGLGEVGYLQRLGSQYHWSNQGYQSFDDFLGQLSSRKRKQIRKERDAVARSGVRITTLVGTEVKSRHWDVFHAFYESVVDRKWGRAYVNRAFFEELSASNLAEAVVLVWAEDDGEPLGAAFNMLGKDTLYGRTWGGGRHVDFLHFEACYYRALDFAIAHGLARVEAGAQGEHKVSRGYLPTPTYSAHWIADAALAEPVARYLAHERAQVAEDMADQTEEGPFRKA”, the “soluble on expression in E. coli” value is on record as “not soluble”.
Turning to “MGSDKIHHHHHHMPEKKIDGRRKAAVLLVALGPEKAAQVMKHLDEETVEQLVVEIANIGRVTPEEKKQVLEEFLSLAKAKEMISEGGIEYAKKVLEKAFGPERARKIIERLTSSLQVKPFSFVRDTDPVQLVNFLQSEHPQTIAVVLSYLDPPVAAQILGALPEELQTEVLKRIALLERTSPEVVKEIERNLEKKISGFVSRTFSKVGGIDTAAEIMNNLDRTTEKKIMDKLVQENPELADEIRRRMFVFEDILKLDDRSIQLVLREVDTRDLALALKGASDELKEKIFKNMSKRAAALLKDELEYMGPVRLKDVEEAQQKIINIIRRLEEAGEIVIARGGGEELIM”, the “soluble on expression in E. coli” value is given as “not soluble”.
With “MGSDKIHHHHHHMPEKLDTVLGYLKEFPDYYKYVTKKTYTVNEKIIFEDEKAKSIFFIVEGYAAVELEDNLRKTNYISIFVLPYNVLGIDAFSSYPKKKHSITVMSEHLMLYKIDADFLLNILSIKPDVNDFLLTSIADVFARHYALLGMIAKTPKERIYMALENLAVEMGTEDEERNEIVLPNFINQSVLARYCRTTQPNISNLLTELVEEEFLVNKKSPYRIDKDSLDI”, the “soluble on expression in E. coli” value is reported as “not soluble”.
In the case of “MGSDKIHHHHHHMPEPELMDDPLQARAYAEADFSCGDEALIQRLQEYLISLCKIPSPGSMIVDLGCGPGNICERLQRLWPEVMVLGIDGAQAMLDHALQRQKAMAAELKRLTYRCSNLSSLVNQCVDLKCSAALVVSNSLLHHLHDPNLLWQVTKYLAAPGAFVFHRDLRRPLSTKHAIALQQKHMQEAPSILIRDYLASLHAAFTLEEVQSQLVHAGLDHLHVIEVEDRYLDVFGTI”, the “soluble on expression in E. coli” value is “not soluble”.
